Data: US20090191195A1 (MacroGenics, published 2009)

Target: T1, human FcγRIIB (human, UniProt P31994 43-310)
T1 construct: whole, on cells; Native receptor on human cells or in frozen tissue sections; also called CD32B
T1 sequence (looked up): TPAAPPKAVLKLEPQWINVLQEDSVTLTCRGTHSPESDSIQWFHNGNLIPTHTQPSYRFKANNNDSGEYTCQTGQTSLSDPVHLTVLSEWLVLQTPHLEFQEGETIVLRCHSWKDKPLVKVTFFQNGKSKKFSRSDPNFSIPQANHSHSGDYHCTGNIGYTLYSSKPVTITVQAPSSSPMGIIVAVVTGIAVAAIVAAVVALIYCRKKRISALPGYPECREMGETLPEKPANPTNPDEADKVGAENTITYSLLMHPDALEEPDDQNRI
Assay: immunohistochemistry, frozen lymph node, patient MG04-CHTN-19; grade = share of positive cells
Method: The remaining portions of these samples were placed in cryomolds and embedded in OCT cryocompound (Tissue-Tek). Once the blocks were ready, each was sectioned under a Cryostat (Leica Microsystems) at 6 microns. The slides were placed in 4° C. acetone and fixed for 10 minutes. Hours after fixation the slides were air dried and washed with phosphate buffer saline (PBS). Then endogenous peroxide activity was blocked by a 30 minute incubation in a 0.3% hydrogen peroxide solution. The slides were washed in PBS and incubated for 30 minutes with 10% normal goat serum in 2% normal human serum. After this step, the slides were divided in two groups. Two monoclonal antibodies were utilize and incubated on the same tissue in parallel, an anti-CD20 (1F5—a hybridoma, ATCC No. HB-9645, purified at Macrogenics) and the murine monoclonal anti-CD32B antibody, 2B6. Each group was incubated with one monoclonal antibody and their respective Isotype control, IgG1 (BD Biosciences, San Jose, Calif.) for the 2B6/anti-CD32B group and IgG2a (BD Biosciences) for the 1F5/anti-CD20 group. Mouse IgG1 and murine IgG2a were used as Isotype controls for anti-CD32B and anti-CD20, respectively. After one hour of incubation at room temperature, the slides were washed in PBS and incubated with a secondary antibody Goat anti Mouse labeled peroxidase (Jackson ImmunoResearch Laboratories, West Grove, Pa.). […]

binding result: binds
B1: monoclonal antibody produced by clone 2B6 (ATCC accession number PTA-4591) (antibody, V domains shown)
VH: QVQLQQPVTELVRPGASVMLSCKASDYPFTNYWIHWVKQRPGQGLEWIGVIDPSDTYPNYNKKFKGKATLTVVVSSSTAYMQLSSLTSDDSAVYYCARNGDSDYYSGMDYWGQGTSVTVSS
VL: DILLTQSPAILSVSPGERVSFSCRTSQSIGTNIHWYQQRTNGFPRLLIKNVSESISGIPSRFSGSGSGTDFILSINSVESEDIADYYCQQSNTWPFTFGGGTKLEIK
notes: Mouse hybridoma antibody; mouse IgG1 was used as its isotype control; also called murine monoclonal anti-CD32B antibody, 2B6; anti-CD32B
